Source: patent US20200024598A1, “ISOLATED POLY[…] REGION, HOST CELL COMPRISING THE SAME, AND METHOD OF […] GENE IN THE HOST CELL” (priority 2018, published 2020)

Assays:
Assay type in all cases: cell-based, Pseudomonas saitens KCTC 13107BP
Ptac-cm^R SF1 strain = assay: MIC test of chloramphenicol on recombinant SF1 strain (Ptac promoter); settings: Pseudomonas, 48 h, read-out: MIC of Chloramphenicol
Procedure: (§1) A pB-P4381 vector comprising cm^R gene (cat) downstream of the promoter of highly expressed gene Gene_4381, which was selected based on RNA-seq data, was constructed as described in (2). This vector was then introduced into SF1 strain by electroporation. As control groups, a pSF-EX1 vector and a pBBR-122 vector were introduced into separate SF1 strains in the same manner as described above.
(§2) Each of the recombinant SF1 strains was cultured in separate wells of a microplate containing LB medium containing predetermined chloramphenicol, and growth thereof was examined to confirm minimal inhibitory concentrations (MICs). Culturing was performed at 30° C. for 2 days in an LB medium supplemented with 400 μg/ml of chloramphenicol by ½ dilution at each concentration.

P4381-cm^R SF1 strain = assay: MIC test of chloramphenicol on recombinant SF1 strain (P4381 promoter)
Procedure: as §1, §2

Pcat-cm^R SF1 strain = assay: MIC test of chloramphenicol on recombinant SF1 strain (Pcat promoter); settings: Pseudomonas, 48 h, LB medium, 30° C., 2 days
Procedure: as §1, §2

cat protein = assay: SDS-PAGE analysis of cat protein expression in cell lysates; settings: SDS-PAGE of soluble proteins, SF1 strain
Excerpt: Pcat-cm^R, Ptac-cm^R, and P4381-cm^R cells cultured in (3.1) were lysed to obtain cell lysates, from which soluble proteins were isolated using a BuGBusTER® Protein Extraction Reagent, respectively. The isolated proteins were subjected to SDS-PAGE to examine cat expression.
In FIG. 5, the arrow indicates the position of cat protein.

cat gene = assay: cat mRNA level by RT-PCR; settings: SF1 strain
Excerpt: Pcat-cm^R, Ptac-cm^R, and P4381-cm^R cells cultured in (3.1) were lysed to obtain cell lysates, which were then centrifuged to obtain supernatants, respectively. Each supernatant was subjected to RT-PCR using a set of primers of SEQ ID NOS: 13 and 14.
In FIG. 4, the vertical axis represents a ratio when a cycle threshold (CT) value of Pcat promoter is regarded as 1, and Pcat, Ptac, and P4381 on the horizontal axis represent SF1 strains introduced with […], respectively.

Row | Molecule | MIC (Ptac-cm^R SF1 strain) [mg/L] | MIC (P4381-cm^R SF1 strain; Pseudomonas, 48 h, strain P4381-cm^R, LB medium, 30° C., 2 days) [mg/L] | MIC (Pcat-cm^R SF1 strain) [mg/L] | MIC relative to that of existing Pcat and Ptac (P4381-cm^R SF1 strain; chloramphenicol MIC, SF1 strain) | cat protein expression level compared with Pcat and Ptac (cat protein) | cat mRNA level relative to Pcat (cat gene; compared with Pcat promoter) [times] | cat mRNA level relative to Ptac (cat gene; compared with Ptac promoter) [times]
1 | O=C(N[C@H](CO)[C@H](O)c1ccc([N+](=O)[O-])cc1)C(Cl)Cl [Chloramphenicol, chloramphenicol] | > 100 | > 200 | > 100 | – | – | – | –
2 | P4381: promoter polynucleotide comprising SEQ ID NO: 1 isolated from Gene_4381 of Pseudomonas saitens KCTC 13107BP (nucleic acid, Synthetic Pseudomonas saitens KCTC 13107BP) DNA: TAGACCTGACTGCAGAGCGAATTCGGGCCTGATTCAGGGCAAAAATGGCCAGAAACCATTTTTCGCGTAAAAAATATTCATTCGCGAGTGCTTTTTTTCCAAGCCCGTTTAACCCTCAAGCCCCGGAAACCGGGGCTTCGAGCATTTCAGGCAGCAGACCGAAGCTAACATCGCAGCAAACTGTGGTTCAGGGGGGTTCCAAAGCGCACATTTCGACTATGATAGCTCGGTGTGCCCAGTTGGCCTGAGCAGCACAGTACTACTGAAAATATAAGTTTCTTGGAGATACACC | – | – | – | twice or higher | significantly higher | 158 | 32
